We go through nine molecules from patent US20200317758A1 (NEW YORK UNIVERSITY, published 2020).

Substitutions are numbered along the chain they refer to.

Experiment [1] has as its target T1, recombinant toxoid variant of the LukAB protein (LukA E323A) with poly-histidine and streptavidin binding … (Staphylococcus aureus, UniProt Q2FFA2 31-351; P21224 30-338).
T1 construct: also called LukAB toxoid protein; biotinylated LukAB
The experiment can be described thus: ELISA, biotinylated LukAB toxoid on streptavidin plate, mAb titrated. For orientation: ELISA stands for enzyme-linked immunosorbent assay.

Experiment [2] concerns the target T2, recombinant derivative of the LukE protein (SEQ ID NO: 826) with amino-terminal poly-histidine affinity tag (Staphylococcus aureus, UniProt Q2FXB0 24-306).
T2 construct: not biotinylated in HDX-MS and neutralization assays; also called biotinylated LukE; LukE antigen
T2 sequence: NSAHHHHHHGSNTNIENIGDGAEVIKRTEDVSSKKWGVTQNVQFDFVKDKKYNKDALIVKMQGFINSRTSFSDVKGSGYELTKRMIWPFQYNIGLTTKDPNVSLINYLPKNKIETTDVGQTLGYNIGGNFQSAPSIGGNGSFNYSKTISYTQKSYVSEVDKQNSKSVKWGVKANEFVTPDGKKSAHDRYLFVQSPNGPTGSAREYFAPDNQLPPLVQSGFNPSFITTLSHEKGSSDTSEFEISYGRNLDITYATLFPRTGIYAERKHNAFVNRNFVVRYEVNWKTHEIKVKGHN
The experiment can be described thus: HDX-MS, Fab with LukE in solution.

The target of experiment [3] is T3, recombinant derivative of the LukD protein (SEQ ID NO: 824) with amino-terminal polyhistidine affinity tag, … (Staphylococcus aureus, UniProt Q2FXB1 27-327, chemically biotinylated in vitro (sites not given)).
T3 construct: it carries the N-terminal His tag; also called biotinylated LukD; LukD antigen
T3 sequence: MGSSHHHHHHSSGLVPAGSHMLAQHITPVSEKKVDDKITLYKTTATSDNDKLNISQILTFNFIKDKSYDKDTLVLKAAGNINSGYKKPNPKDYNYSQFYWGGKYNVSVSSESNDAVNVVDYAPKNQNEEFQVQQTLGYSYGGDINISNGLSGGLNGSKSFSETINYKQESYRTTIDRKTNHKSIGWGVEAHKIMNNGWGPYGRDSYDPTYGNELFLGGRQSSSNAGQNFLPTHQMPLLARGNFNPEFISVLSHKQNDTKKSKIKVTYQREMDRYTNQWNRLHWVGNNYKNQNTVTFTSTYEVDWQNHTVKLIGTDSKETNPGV
The experiment can be described thus: ELISA, biotinylated LukD on streptavidin plate, mAb titrated.

Experiment [4] deals with T2, recombinant derivative of the LukE …. The experiment can be described thus: ELISA, biotinylated LukE on streptavidin plate, mAb titrated.
Experiment [5] has the same target. The experiment can be described thus: BLI, sequential binding.

B1: anti-LukAB mAb SM1B111 (antibody, V domains shown)
VH: EVQLQQSGAELVKPGASVKISCKASGYAFSSSWMNWLKQRPGKGLEWIGRIYPGDGDTNYNGKFKGKATLTADKSSSTAYMQLSSLTSEDSAVYFCARYGYDYDGEYYYAMDYWGQGTSVTVSS
VL: DIVMTQSPTTMAASPGERITITCSAHSNLISNYLHWYQQKPGFSPKLLIYRTSNLASGVPARFSGSGSGTSYSLTIGTMEAEDVATYFCQQGSSIPFTFGSGTKLEIKR
Regarding B1, the binding result in experiment [1] was “binds”.

B2: Fab SM1B709 (the Fab corresponding to mAb SM1B507) (Fab, V domains shown)
VH: EVQLQQSGAELVKPGASVKMSCKASGYTFTDYYMDWVKQSHGKSFEWIGHVNPYNGDTRYNQKFKGKATLTVDKSSTTAYMELNSLTSEDSAVYYCARGNFFDYWGQGTTLSVSS
VL: DIVMTQSPAIMSASPGEKVTIPCSASSSVSYMHWFQQKPGTSPKLWIYSTSNLASGVPGRFSGSGSGTSYSLTISRMEAEDAATYYCQQRSNYPLTFGAGTKLELKR
As for B2, the binding result in experiment [2] is reported as “binds”.

B3: antibody SM1B225 (antibody, V domains shown)
VH: EVQLQQSGGGLVKPGGSLKLSCAASGFTFSSYAMSWVRQTPEKRLEWVATITGGGTYTYYLDSVKGRFTISRDNAKTSLYLQMSSLRSEDTAMYYCARHRDGNYGCFDVWGAGTTVTVSS
VL: DIVLTQSPAIMSASLGERVTMTCTASSSVSSSYLHWYQQKPGSSPKLWVYSTSNLASGVPARFSGSGSGSSYSLTISSMEPEDTATYYCHQYHRSPQTFGGGTKLEIKR
notes: also called anti-LukD mAb SM1B225
Turning to B3, the EC50 (in general, the concentration needed to bring the measured effect to its halfway point) in experiment [3] was 0.01 to 0.2 µg/mL.

B4: anti-LukE mAb SM1B332 (antibody, mouse IgG2a, kappa, V domains shown)
VH: QVQLKESGPGLVAPSQSLSITCTVSGLSLTSYGLSWVRQPPGKGLEWLGVIWGDGSTNYHSALISRLSISKDNSKSQVFLKLNSLQSDDTATYYCATRGDYGSYAMDYWGQGTSVTVSS
VL: QIVLTQSPAIMSASPGEKVTLTCSASSSVSSSYLFWYQQKPGSSPKLWIYSTSNLASGVPVRFSGSGFGTSYSLTISRMEAEDAASYFCHQWSSYPPTFGAGTKLELKR
For the molecule B4, in experiment [4], the EC50 was around 0.05 µg/mL.

B5: anti-LukAB mAb SM1B252 (antibody, mouse IgG2a, kappa, V domains shown)
VH: QVQLQQSGAELMKPGASVKISCKASGYTFSDYWIEWIKQRPGHGLEWMGEILPGSDKTNYNEKFKGKATFTADSSSNTAYMQLNSLTSEDSAVFYCATAGDDYVKWGQGTLVTVSA
VL: DVLMTQTPLSLPVSLGDQASISCRSSQSIVYSNGNTYLEWYLQKPGQSPKLLIYKVSNRFSGVPDRFSGSGSGTDFTLKISRVEAEDLGVYYCFQGSHVPFTFGSGTKLEIKR
Regarding B5, the binding result in experiment [1] is given as “binds”.

B6: anti-LukE mAb SM1B318 (antibody, mouse IgG2a, kappa, V domains shown)
VH: QVQLQQSGAELMNPGASVKISCKSTGYKFSSYWIEWVKQRPGHGLEWMGEILPGSGSTNHNEKFKGKAIFTADASSNTAYMELSSLTSEDSAVYYCARTISTATDWFAYWGQGTLVTVSA
VL: B5 VL with S28T, N33D, F67V, F101Y, S105G
Take B6: the binding result in experiment [4] is given as “binds”.

B7: Fab SM1B438 (the Fab corresponding to mAb SM1B318) (Fab, V domains shown)
VH: B6 VH
VL: B5 VL with S28T, N33D, F67V, F101Y, S105G
For the molecule B7, in experiment [2], the binding result was “binds”.

B8: anti-LukE mAb SM1B507 (antibody, mouse IgG1, kappa)
heavy: EVQLQQSGAELVKPGASVKMSCKASGYTFTDYYMDWVKQSHGKSFEWIGHVNPYNGDTRYNQKFKGKATLTVDKSSTTAYMELNSLTSEDSAVYYCARGNFFDYWGQGTTLSVSSAKTTPPSVYPLAPGSAAQTNSMVTLGCLVKGYFPEPVTVTWNSGSLSSGVHTFPAVLESDLYTLSSSVTVPSSPRPSETVTCNVAHPASSTKVDKKIVPRDCGCKPCICTVPEVSSVFIFPPKPKDVLTITLTPKVTCVVVDISKDDPEVQFSWFVDDVEVHTAQTQPREEQFNSTFRSVSELPIMHQDWLNGKEFKCRVNSAAFPAPIEKTISKTKGRPKAPQVYTIPPPKEQMAKDKVSLTCMITDFFPEDITVEWQWNGQPAENYKNTQPIMNTNGSYFVYSKLNVQKSNWEAGNTFTCSVLHEGLHNHHTEKSLSHSPGK
light: DIVMTQSPAIMSASPGEKVTIPCSASSSVSYMHWFQQKPGTSPKLWIYSTSNLASGVPGRFSGSGSGTSYSLTISRMEAEDAATYYCQQRSNYPLTFGAGTKLELKRADAAPTVSIFPPSSEQLTSGGASVVCFLNNFYPKDINVKWKIDGSERQNGVLNSWTDQDSKDSTYSMSSTLTLTKDEYERHNSYTCEATHKTSTSPIVKSFNRNEC
On to B8, for which, in experiment [5], the binding result is reported as “binds”.

B9: anti-LukAB mAb SM1B245 (antibody, mouse IgG2a, kappa, V domains shown)
VH: QVQLQQSGAELAKPGASVKMSCKSSGYTFSTYWMHWVKQRPGQGLEWIGYINPNTGYTEYNQKFKDTATLTADKSSSTAYMQLSSLTSEDSAVYYCARGGSKAFPYYAMDYWGQGTSVTVSS
VL: DIVLTQSPASLAVSLGQRATMSCRASESVDGYGNSFLHWYQQKPGQPPKLLIYRASNLESGIPARFSGTGSRTDFTLTITPVEADDVATYYCQQSNGDPFTFGSGTKLEIKR
Take B9: the binding result in experiment [1] was “binds”.
